Drawing on publication PMC4004530 (Circulation research, 2013), this text covers Kd for 2 molecules.

Where two headings read alike, the source gives them in different places.

Assay [1] deals with Cardiac ryanodine receptor (RyR2) in rat ventricular myocytes (rat (endogenous in ventricular myocytes)) (UniProt B0LPN4). Nature of the assay: FRET or BRET. (In general: BRET reads energy transfer from a luciferase to a nearby fluorophore.)
For assay [2] the target is unchanged. The experiment in a line: FRET or BRET. The source holds these as a separate data set.
Assay [3] deals with Cardiac ryanodine receptor (RyR2) in rat ventricular myocytes (rat (endogenous in ventricular myocytes), UniProt B0LPN4 1-4955). Nature of the assay: other fluorescence titration.
Chain of Cardiac ryanodine receptor (RyR2) in rat ventricular myocytes (B0LPN4 whole entry): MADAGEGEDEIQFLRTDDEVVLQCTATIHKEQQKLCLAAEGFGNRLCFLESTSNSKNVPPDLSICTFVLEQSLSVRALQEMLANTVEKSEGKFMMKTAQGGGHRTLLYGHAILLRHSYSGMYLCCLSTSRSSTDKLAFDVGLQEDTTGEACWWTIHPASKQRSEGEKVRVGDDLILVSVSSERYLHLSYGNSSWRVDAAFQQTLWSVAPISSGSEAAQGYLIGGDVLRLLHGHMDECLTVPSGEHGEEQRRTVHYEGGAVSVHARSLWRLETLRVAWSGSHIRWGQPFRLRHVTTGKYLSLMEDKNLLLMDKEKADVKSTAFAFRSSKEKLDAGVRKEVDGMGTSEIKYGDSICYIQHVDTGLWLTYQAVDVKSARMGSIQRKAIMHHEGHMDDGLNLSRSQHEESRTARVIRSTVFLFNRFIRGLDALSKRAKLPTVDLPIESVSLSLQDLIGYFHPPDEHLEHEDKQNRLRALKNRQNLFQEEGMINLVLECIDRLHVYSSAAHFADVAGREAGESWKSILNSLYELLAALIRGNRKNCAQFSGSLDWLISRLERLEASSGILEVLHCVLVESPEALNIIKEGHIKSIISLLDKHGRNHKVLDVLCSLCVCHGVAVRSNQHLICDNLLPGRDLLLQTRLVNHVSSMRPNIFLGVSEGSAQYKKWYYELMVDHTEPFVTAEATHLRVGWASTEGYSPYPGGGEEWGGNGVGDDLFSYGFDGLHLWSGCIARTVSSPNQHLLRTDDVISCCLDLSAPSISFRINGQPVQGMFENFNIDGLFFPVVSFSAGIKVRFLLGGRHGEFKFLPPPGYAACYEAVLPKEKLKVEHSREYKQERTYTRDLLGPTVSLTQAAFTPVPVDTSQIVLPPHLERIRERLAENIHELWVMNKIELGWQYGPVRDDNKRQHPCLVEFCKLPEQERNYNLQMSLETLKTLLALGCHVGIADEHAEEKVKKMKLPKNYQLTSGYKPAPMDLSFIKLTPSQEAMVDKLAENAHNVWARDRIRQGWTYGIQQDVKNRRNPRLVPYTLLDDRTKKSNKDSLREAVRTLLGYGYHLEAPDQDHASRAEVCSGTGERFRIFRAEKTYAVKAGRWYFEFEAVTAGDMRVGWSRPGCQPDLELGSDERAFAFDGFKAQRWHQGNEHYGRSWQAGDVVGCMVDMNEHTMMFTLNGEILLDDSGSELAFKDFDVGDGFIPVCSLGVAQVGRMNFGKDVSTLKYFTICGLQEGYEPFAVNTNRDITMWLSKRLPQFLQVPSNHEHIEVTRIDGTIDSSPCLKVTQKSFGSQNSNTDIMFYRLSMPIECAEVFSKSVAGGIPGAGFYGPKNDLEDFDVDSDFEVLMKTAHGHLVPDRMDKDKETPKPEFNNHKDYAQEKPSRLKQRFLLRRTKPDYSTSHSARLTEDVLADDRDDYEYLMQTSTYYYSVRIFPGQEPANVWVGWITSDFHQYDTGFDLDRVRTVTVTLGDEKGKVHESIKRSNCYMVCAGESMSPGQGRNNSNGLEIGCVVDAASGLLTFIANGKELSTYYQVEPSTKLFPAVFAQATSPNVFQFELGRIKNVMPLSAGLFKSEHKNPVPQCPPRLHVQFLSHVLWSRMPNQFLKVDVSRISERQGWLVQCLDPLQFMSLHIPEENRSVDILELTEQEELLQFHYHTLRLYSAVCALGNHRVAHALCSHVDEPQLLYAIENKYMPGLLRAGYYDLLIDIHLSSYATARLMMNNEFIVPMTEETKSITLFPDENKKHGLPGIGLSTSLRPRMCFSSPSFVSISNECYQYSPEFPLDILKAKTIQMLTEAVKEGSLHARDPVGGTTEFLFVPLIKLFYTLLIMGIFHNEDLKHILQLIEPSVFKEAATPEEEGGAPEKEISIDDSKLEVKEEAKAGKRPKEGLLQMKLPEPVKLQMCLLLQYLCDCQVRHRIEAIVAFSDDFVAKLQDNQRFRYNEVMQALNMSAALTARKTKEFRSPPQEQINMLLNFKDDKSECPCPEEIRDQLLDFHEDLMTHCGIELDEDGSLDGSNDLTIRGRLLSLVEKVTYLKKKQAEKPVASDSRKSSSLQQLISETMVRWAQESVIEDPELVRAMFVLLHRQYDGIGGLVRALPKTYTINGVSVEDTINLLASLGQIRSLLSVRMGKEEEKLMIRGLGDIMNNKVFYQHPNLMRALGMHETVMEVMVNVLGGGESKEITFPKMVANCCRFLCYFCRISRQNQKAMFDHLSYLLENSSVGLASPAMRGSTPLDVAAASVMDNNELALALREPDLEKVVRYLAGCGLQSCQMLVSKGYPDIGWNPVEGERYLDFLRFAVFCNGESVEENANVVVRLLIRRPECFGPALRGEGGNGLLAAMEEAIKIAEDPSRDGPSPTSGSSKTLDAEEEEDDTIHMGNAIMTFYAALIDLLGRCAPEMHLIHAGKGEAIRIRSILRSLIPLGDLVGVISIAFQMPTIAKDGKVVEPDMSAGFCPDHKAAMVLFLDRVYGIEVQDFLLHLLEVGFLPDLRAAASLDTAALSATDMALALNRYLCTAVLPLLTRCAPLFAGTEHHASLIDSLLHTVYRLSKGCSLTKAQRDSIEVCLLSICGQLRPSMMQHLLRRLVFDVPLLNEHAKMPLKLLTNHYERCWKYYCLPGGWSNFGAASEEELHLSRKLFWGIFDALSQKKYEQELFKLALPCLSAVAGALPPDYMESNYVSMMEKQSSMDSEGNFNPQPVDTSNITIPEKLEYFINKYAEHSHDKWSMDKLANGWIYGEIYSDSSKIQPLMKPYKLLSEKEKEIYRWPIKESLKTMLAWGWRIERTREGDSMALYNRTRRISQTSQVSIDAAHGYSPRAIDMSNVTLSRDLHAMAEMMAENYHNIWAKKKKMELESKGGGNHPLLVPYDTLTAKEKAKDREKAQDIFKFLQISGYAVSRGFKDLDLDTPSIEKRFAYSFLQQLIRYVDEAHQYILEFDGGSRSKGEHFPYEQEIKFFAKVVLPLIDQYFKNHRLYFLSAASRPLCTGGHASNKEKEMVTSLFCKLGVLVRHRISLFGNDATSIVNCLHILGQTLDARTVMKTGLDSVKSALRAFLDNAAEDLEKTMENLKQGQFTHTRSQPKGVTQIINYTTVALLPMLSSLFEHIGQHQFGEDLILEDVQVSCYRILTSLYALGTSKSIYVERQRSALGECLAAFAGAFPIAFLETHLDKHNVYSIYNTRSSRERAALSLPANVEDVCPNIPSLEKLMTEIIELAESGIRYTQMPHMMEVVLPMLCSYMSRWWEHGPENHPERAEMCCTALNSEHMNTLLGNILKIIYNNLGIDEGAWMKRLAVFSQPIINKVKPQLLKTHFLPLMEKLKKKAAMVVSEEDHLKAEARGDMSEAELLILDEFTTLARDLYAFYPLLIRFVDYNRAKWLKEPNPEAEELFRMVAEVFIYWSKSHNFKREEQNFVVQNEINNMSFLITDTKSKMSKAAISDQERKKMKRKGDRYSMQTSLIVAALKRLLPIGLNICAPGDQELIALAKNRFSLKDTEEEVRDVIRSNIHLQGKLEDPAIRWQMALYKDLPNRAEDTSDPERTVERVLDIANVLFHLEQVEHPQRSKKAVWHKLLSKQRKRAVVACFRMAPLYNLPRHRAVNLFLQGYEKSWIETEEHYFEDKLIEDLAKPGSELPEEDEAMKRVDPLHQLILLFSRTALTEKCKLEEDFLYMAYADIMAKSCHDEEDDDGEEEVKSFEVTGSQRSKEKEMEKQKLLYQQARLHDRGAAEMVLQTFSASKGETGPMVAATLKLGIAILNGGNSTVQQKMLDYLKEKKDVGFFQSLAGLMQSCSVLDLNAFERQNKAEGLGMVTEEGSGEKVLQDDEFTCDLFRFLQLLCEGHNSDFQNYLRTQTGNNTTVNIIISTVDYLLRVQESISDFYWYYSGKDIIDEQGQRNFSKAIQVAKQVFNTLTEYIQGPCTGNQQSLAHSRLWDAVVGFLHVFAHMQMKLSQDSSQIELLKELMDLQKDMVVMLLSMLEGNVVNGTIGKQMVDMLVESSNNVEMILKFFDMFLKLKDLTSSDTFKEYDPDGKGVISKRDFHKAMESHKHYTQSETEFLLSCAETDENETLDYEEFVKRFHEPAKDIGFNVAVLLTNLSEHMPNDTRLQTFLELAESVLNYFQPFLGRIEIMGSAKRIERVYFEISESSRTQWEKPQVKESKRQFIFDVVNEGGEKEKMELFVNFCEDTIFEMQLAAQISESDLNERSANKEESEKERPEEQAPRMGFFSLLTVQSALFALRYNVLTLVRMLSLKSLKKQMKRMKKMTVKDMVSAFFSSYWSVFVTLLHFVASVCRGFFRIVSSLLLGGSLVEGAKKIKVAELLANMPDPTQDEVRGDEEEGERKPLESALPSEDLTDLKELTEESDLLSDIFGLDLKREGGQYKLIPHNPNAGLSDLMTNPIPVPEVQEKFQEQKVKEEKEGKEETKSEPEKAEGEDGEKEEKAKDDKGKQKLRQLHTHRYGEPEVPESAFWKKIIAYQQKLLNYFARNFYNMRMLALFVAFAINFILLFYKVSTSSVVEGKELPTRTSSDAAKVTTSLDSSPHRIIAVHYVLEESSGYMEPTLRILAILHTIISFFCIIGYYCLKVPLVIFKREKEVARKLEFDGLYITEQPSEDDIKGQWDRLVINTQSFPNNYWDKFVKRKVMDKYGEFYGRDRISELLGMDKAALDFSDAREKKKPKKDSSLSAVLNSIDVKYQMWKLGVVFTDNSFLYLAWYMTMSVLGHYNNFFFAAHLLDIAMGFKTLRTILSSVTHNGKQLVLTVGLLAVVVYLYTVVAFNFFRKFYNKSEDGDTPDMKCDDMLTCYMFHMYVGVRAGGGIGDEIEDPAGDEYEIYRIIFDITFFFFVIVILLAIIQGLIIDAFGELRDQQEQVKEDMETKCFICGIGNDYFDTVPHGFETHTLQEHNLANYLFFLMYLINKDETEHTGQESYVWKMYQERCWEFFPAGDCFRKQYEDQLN

Chain of Cardiac ryanodine receptor (RyR2) in rat ventricular myocytes (rat (endogenous in ventricular myocytes)) (B0LPN4 whole entry): as above

For orientation: Kd means the concentration at which binding is half-saturated. With “Fluorescent calmodulin (CaM labeled with Alexa Fluor 568) (from UniProt P0DP23 1-149) (natural protein)”, the results for the Kd in assay [1] and in assay [2] were 10 nM and 12 nM, respectively.

B1: Fluorescent FKBP12.6 (FK506 binding protein 12.6 labeled with Alexa Fluor 488) (natural protein)
chain: MGVEIETISPGDGRCFPKKGQTAVVHYTGMLQNGKKFDSSRDRNKPFKFRIGKQEVIKGFEEGAAQMSLGQRAKLTITPDVAYGATGHPGVIPPNATLIFDVELLNLE
modifications: Alexa Fluor 488 label (site not stated)
For the molecule B1, binding in assay [3] was characterised by a dissociation constant (Kd) of 0.8 ± 0.1 nM.
